Test system: HepG2 B6 cells (STAT-sPAP reporter)
Assay: OSM-GST mutant driven sPAP production in HepG2 B6 assay
Assay type: cell-based, human
Settings: for 'Potency': relative to wild type, from Mean %
Procedure: HepG2 B6 cells were plated into 96 well plates to a final concentration of 3×10^4 cells per well in 100 μl of media (DMEM (Sigma), 10% HI FCS, 1% non-essential amino acids, 2 mM Glutamine, 500 μg ml^−1 G418, (all from Life Technologies)). Cells were allowed to equilibrate for 48 hours. Putative anti-OSM solid compounds were made up to a stock dilution of 20 mM in DMSO and serially diluted 1:3 in DMSO. This was then further diluted in HepG26B assay media, this is as above media but with 1% heat inactivated FCS, low alkaline phosphatase activity (Life Technologies) substituted for 10% HI FCS. Compounds were diluted 1:3 from a top concentration of […] to a final concentration of 0.09 μM in a final concentration of 1% DMSO. (That is 200, 66.67, 22.22, 7.41, 2.47, 0.82, 0.27, 0.09 and 0 μM). The old media was removed from the wells and replaced with diluted compound also containing 2 ng ml^−1 OSM (R&D Systems), cells were incubated for a further 20 hours. Each dilution was performed in triplicate. 20 μl of media was removed from each well and assayed for sPAP activity using pNPP (p-Nitrophenyl phosphate; Sigma), as a substrate. Endogenous alkaline phosphatase is blocked with L-homoarginine. Optical density of substrate is read at 405-650 nm. Concentration of compound is plotted against OD as a measure of sPAP produced and can be analysed to determine IC50 values.
The assay described in Example 7b above was employed. OSM-GST mutants were diluted to a concentration of 100 ng ml^−using the known concentration of intact OSM mutants generated in Example 9b. A wild type OSM-GST was included for control purposes. Dilutions were made in HepG2 B6 media with 1% heat inactivated FCS, low alkaline phosphatase activity. Serial 1:3 dilutions were then made. (100; 33.33; 11.11; 3.7; 1.23; 0.4 ng ml^−1). 3×10^4 HepG2 B6 were dispensed into individual well of a 96 well plate in 100 μl of media. Cells were allowed to equilibrate for 48 hours. Media was then removed and replaced with 100 μl of diluted OSM-GST mutant. Cells were incubated for a further 20 hours. Each dilution was performed in triplicate. 20 μl of media was removed and assayed for sPAP using pNPP as a substrate. Endogenous ALP was blocked with L-homoarginine. O.D. was read at 405-650 nm. The experiment was repeated twice.

Molecule | Expt 1 EC50 [µg/mL] | Expt 2 EC50 [µg/mL] | Expt 3 EC50 [µg/mL] | 'Potency'
(17) P116A: OSM-GST fusion, alanine for Pro 116 (protein, left off: a dimerising Fc or GST; large carriers; small tags and cut ends) AAIGSCSKEYRVLLGQLQKQTDLMQDTSRLLDPYIRIQGLDVPKLREHCRERPGAFPSEETLRGLGRRGFLQTLNATLGCVLHRLADLEQRLPKAQDLERSGLNIEDLEKLQMARANILGLRNNIYCMAQLLDNSDTAEPTKAGRGASQPPTPTPASDAFQRKLEGCRFLHGYHRFMHSVGRVFSKWGESPNRSRR | 0.025 | 0.015 |  | MORE (<80% More potent)
(21) R122A: OSM-GST fusion, alanine for Arg 122 (protein, left off: a dimerising Fc or GST; large carriers; small tags and cut ends) AAIGSCSKEYRVLLGQLQKQTDLMQDTSRLLDPYIRIQGLDVPKLREHCRERPGAFPSEETLRGLGRRGFLQTLNATLGCVLHRLADLEQRLPKAQDLERSGLNIEDLEKLQMARPNILGLANNIYCMAQLLDNSDTAEPTKAGRGASQPPTPTPASDAFQRKLEGCRFLHGYHRFMHSVGRVFSKWGESPNRSRR | 0.0324 | 0.0138 | 0.0473 | EQUAL (80-120% Equal potency)
(19) L119A: OSM-GST fusion, alanine for Leu 119 (protein, left off: a dimerising Fc or GST; large carriers; small tags and cut ends) AAIGSCSKEYRVLLGQLQKQTDLMQDTSRLLDPYIRIQGLDVPKLREHCRERPGAFPSEETLRGLGRRGFLQTLNATLGCVLHRLADLEQRLPKAQDLERSGLNIEDLEKLQMARPNIAGLRNNIYCMAQLLDNSDTAEPTKAGRGASQPPTPTPASDAFQRKLEGCRFLHGYHRFMHSVGRVFSKWGESPNRSRR | 0.0278 | 0.023 |  | EQUAL (80-120% Equal potency)
(3) E9A: OSM-GST fusion, alanine for Glu 9 (protein, left off: a dimerising Fc or GST; large carriers; small tags and cut ends) AAIGSCSKAYRVLLGQLQKQTDLMQDTSRLLDPYIRIQGLDVPKLREHCRERPGAFPSEETLRGLGRRGFLQTLNATLGCVLHRLADLEQRLPKAQDLERSGLNIEDLEKLQMARPNILGLRNNIYCMAQLLDNSDTAEPTKAGRGASQPPTPTPASDAFQRKLEGCRFLHGYHRFMHSVGRVFSKWGESPNRSRR | 0.0236 | 0.0089 |  | MORE (<80% More potent)
(1) S7A: OSM-GST fusion, alanine for Ser 7 (protein, left off: a dimerising Fc or GST; large carriers; small tags and cut ends) AAIGSCAKEYRVLLGQLQKQTDLMQDTSRLLDPYIRIQGLDVPKLREHCRERPGAFPSEETLRGLGRRGFLQTLNATLGCVLHRLADLEQRLPKAQDLERSGLNIEDLEKLQMARPNILGLRNNIYCMAQLLDNSDTAEPTKAGRGASQPPTPTPASDAFQRKLEGCRFLHGYHRFMHSVGRVFSKWGESPNRSRR | 0.012 | 0.0222 |  | MORE (<80% More potent)
(18) N117A: OSM-GST fusion, alanine for Asn 117 (protein, left off: a dimerising Fc or GST; large carriers; small tags and cut ends) AAIGSCSKEYRVLLGQLQKQTDLMQDTSRLLDPYIRIQGLDVPKLREHCRERPGAFPSEETLRGLGRRGFLQTLNATLGCVLHRLADLEQRLPKAQDLERSGLNIEDLEKLQMARPAILGLRNNIYCMAQLLDNSDTAEPTKAGRGASQPPTPTPASDAFQRKLEGCRFLHGYHRFMHSVGRVFSKWGESPNRSRR | 0.058 | 0.0425 |  | LESS (>120% Less potent than wild type)
(2) K8A: OSM-GST fusion, alanine for Lys 8 (protein, left off: a dimerising Fc or GST; large carriers; small tags and cut ends) AAIGSCSAEYRVLLGQLQKQTDLMQDTSRLLDPYIRIQGLDVPKLREHCRERPGAFPSEETLRGLGRRGFLQTLNATLGCVLHRLADLEQRLPKAQDLERSGLNIEDLEKLQMARPNILGLRNNIYCMAQLLDNSDTAEPTKAGRGASQPPTPTPASDAFQRKLEGCRFLHGYHRFMHSVGRVFSKWGESPNRSRR | 0.016 | 0.0125 |  | MORE (<80% More potent)

Second part, led by results:

Expt 1 EC50 [µg/mL] | Expt 2 EC50 [µg/mL] | Expt 3 EC50 [µg/mL] | Molecule | 'Potency'
0.0125 | 0.0082 |  | (25) Y130A: OSM-GST fusion, alanine for Gln 130 (protein, left off: a dimerising Fc or GST; large carriers; small tags and cut ends) AAIGSCSKEYRVLLGQLQKQTDLMQDTSRLLDPYIRIQGLDVPKLREHCRERPGAFPSEETLRGLGRRGFLQTLNATLGCVLHRLADLEQRLPKAQDLERSGLNIEDLEKLQMARPNILGLRNNIYCMAALLDNSDTAEPTKAGRGASQPPTPTPASDAFQRKLEGCRFLHGYHRFMHSVGRVFSKWGESPNRSRR | MORE (<80% More potent)
0.093 | 0.0103 | 0.0408 | (24) Y126A: OSM-GST fusion, alanine for Tyr 126 (protein, left off: a dimerising Fc or GST; large carriers; small tags and cut ends) AAIGSCSKEYRVLLGQLQKQTDLMQDTSRLLDPYIRIQGLDVPKLREHCRERPGAFPSEETLRGLGRRGFLQTLNATLGCVLHRLADLEQRLPKAQDLERSGLNIEDLEKLQMARPNILGLRNNIACMAQLLDNSDTAEPTKAGRGASQPPTPTPASDAFQRKLEGCRFLHGYHRFMHSVGRVFSKWGESPNRSRR | LESS (>120% Less potent than wild type)
0.0133 | 0.013 |  | (26) Q25A: OSM-GST fusion, alanine for Gln 25 (protein, left off: a dimerising Fc or GST; large carriers; small tags and cut ends) AAIGSCSKEYRVLLGQLQKQTDLMADTSRLLDPYIRIQGLDVPKLREHCRERPGAFPSEETLRGLGRRGFLQTLNATLGCVLHRLADLEQRLPKAQDLERSGLNIEDLEKLQMARPNILGLRNNIYCMAQLLDNSDTAEPTKAGRGASQPPTPTPASDAFQRKLEGCRFLHGYHRFMHSVGRVFSKWGESPNRSRR | MORE (<80% More potent)
0.0195 | 0.0255 |  | (27) D26A: OSM-GST fusion, alanine for Asp 26 (protein, left off: a dimerising Fc or GST; large carriers; small tags and cut ends) AAIGSCSKEYRVLLGQLQKQTDLMQATSRLLDPYIRIQGLDVPKLREHCRERPGAFPSEETLRGLGRRGFLQTLNATLGCVLHRLADLEQRLPKAQDLERSGLNIEDLEKLQMARPNILGLRNNIYCMAQLLDNSDTAEPTKAGRGASQPPTPTPASDAFQRKLEGCRFLHGYHRFMHSVGRVFSKWGESPNRSRR | EQUAL (80-120% Equal potency)

Reference: patent publication US7291332B2, “Inflammatory mediator antagonists” (SmithKline Beecham Corporation, priority 1998, dated 2007)
